# Assay results published in publication PMC4726260, “Combined ligand-observe ^19F and protein-observe ^15N,^1H-HSQC NMR suggests phenylalanine as the key Δ-somatostatin residue recognized by human protein disulfide isomerase” (Scientific Reports, 2016).
# Non-standard residues stand in square brackets, D forms with d. Residues, ends and D or L forms follow the SMILES beside them. Phe(4-F) = N[C@@H](Cc1ccc(F)cc1)C(=O)O
# Experiments:
# [1] = biological target: Δ-somatostatin (Homo sapiens) (UniProt P61278); assay: 19F NMR; details: cited from earlier work
# [2] = biological target: human protein disulphide isomerase (hPDI) b'x fragment (human) (UniProt P07237); assay: SEC; gel filtration elution profile of 15N labelled b'x (step of the purification); absorbance at 280 nm
# [3] = biological target: T1, hPDI b’x (Homo sapiens, UniProt P07237); assay: Protein-observe 15N,1H-HSQC NMR titration (chemical shift perturbation, Kd); assay type: binding; details: 15N,1H-HSQC; constant 0.25 mM 15N b’x, varying peptide (ratios 1:4 to 2.5:1); 310 K (37 °C); 20 mM sodium phosphate pH 7.0, 50 mM NaCl, 5% D6-DMSO; average of individual residue fits; ± standard error of Levenberg-Marquardt fit; read-out: Dissociation constant (Kd), PROTEIN 15N/1H Tracked
# T1 construct: There is also a short 19 amino acid x-linker region between the b’ and a’ domains; made in house; host or cells: E. coli
# T1 sequence (P07237 230-368 limits assumed): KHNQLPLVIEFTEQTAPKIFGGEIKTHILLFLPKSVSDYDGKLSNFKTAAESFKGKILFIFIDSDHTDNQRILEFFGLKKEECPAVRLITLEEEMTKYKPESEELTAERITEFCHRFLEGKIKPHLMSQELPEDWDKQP
# Procedure: (§1) NMR titrations were carried out by collecting ^19F NMR spectra (at a constant peptide concentration of 0.15 mM) and ^15N,^1H-HSQC spectra (at a constant protein concentration of 0.25 mM). This provided binding perspectives from both peptide and protein. ^19F NMR data provided precise curve fits of equation (1) with Kd values in agreement with those obtained by ^15N NMR (Table 1). […] Triple fluorinated peptide spectra are shown in Fig. 4 with example Kd graphs plotted using chemical shift change against b’x concentration (see Supplementary Information SV for single fluorinated peptide ^19F spectra).
# (§2) All spectra were collected using a 4-channel, 5-amplifier Bruker Avance III 14.1 T (600 MHz ^1H) NMR spectrometer equipped with a 5 mm QCI-F cryoprobe. ^15N,^1H-HSQC spectra were acquired over 45 min on samples containing 0.25 mM b’x and varying peptide concentrations. Each ^19F 1D spectrum was acquired over 60 min on samples of 0.15 mM Δ-som with varying protein concentration. Ratios of the variable:static components in each experiment were 1:4, 1:2, 1:1, 1.5:1, 2:1 and 2.5:1. All samples were run at 310 K in 20 mM sodium phosphate buffer (pH 7.0) containing 50 mM NaCl, 5% D6-DMSO, 5% ^2H2O and 0.05% sodium azide. 1D NMR data were processed using Bruker Topspin software and referenced using the position of trifluoroacetic acid (−76.55 ppm). 2D data were processed using NMRPipe[31] and analysed using the CCPN Analysis software package.
# Amide chemical shifts were calculated in Hz as √[(0.6Δ^1H)^2 + (Δ^15N)^2]. Dissociation constants (Kd) for each shifting peak were calculated by plotting the chemical shift perturbation (Hz) against ligand concentration (mM) and fitting the curve to the equation: […]
# (§3) where Δobs is the observed chemical shift perturbation, Δmax the maximum chemical shift perturbation and [P] and [L] the protein and ligand concentrations respectively. This equation was used to fit both ^15N and ^19F NMR data using KaleidaGraph 4.0 (Synergy Software). Standard errors from the Levenberg-Marquardt fitting routine were taken as the uncertainties. We determined Kd from ^15N,^1H HSQC NMR data using two approaches: First, by simultaneous fitting all shifts which are averaged to create a single plot, which is considered an accurate method of Kd determination. Second, we tracked and fitted each peak individually to the equation above and averaged all results and errors across all fits. […] This hPDI system creates Kd values with shallow binding curve where errors where average chemical shifts reduce fitting accuracy and individual fitting produces higher resoltuion. Therefore, we used Kd values from the averaged individual fit method within this paper to report smaller errors.
# [4] = biological target: T1, hPDI b’x; assay: Ligand-observe 19F NMR titration (chemical shift change vs b’x concentration, Kd); assay type: binding; details: 310 K
# Procedure: as §1, §2, §3
# [5] = biological target: F3 Δ-som; assay: NMR titration; ligand-observed 19F 1D; 0.15 mM fluorinated peptide constant, 15N b'x titrated (ratios 1:4 to 2.5:1); 310 K; 20 mM sodium phosphate pH 7.0, 50 mM NaCl, 5% D6-DMSO, 5% 2H2O, 0.05% sodium azide
# [6] = biological target: F1 Δ-som; assay: as above
# [7] = biological target: F2 Δ-som; assay: as above
# [8] = biological target: F1,2,3 Δ-som; assay: as above
compound,measurement,setting,value
PDI b'x (from UniProt P07237),Kd,[1],23 µM
human protein disulphide isomerase (hPDI) b'x fragment (from UniProt P07237 18-508) (domain or fragment),stoichiometry N,[2],2
C[C@H](N)C(=O)NCC(=O)N[C@@H](CO)C(=O)N[C@@H](CCCCN)C(=O)N[C@@H](CC(N)=O)C(=O)N[C@@H](Cc1ccccc1)C(=O)N[C@@H](Cc1ccccc1)C(=O)N[C@@H](Cc1c[nH]c2ccccc12)C(=O)N[C@@H](CCCCN)C(=O)N[C@H](C(=O)N[C@@H](Cc1ccc(F)cc1)C(=O)N[C@H](C(=O)N[C@@H](CO)C(=O)N[C@@H](CO)C(=O)O)[C@@H](C)O)[C@@H](C)O [F3 Δ-som] (H-AGSKNFFWKT[Phe(4-F)]TSS-OH),Kd,[3],84 ± 53 µM
same,Kd,"[4]; 19F 1D NMR, constant 0.15 mM singly fluorinated peptide, varying b’x, 20 mM sodium phosphate pH 7.0, 50 mM NaCl, 5% D6-DMSO, ± standard error of fit, read-out: Dissociation constant (Kd), LIGAND 19F Tracked (Single-F)",97 ± 21 µM
human protein disulphide isomerase (hPDI) fragment b'x (domain or fragment),Kd,[5],97 µM
same,Kd,[6],109 µM
same,Kd,[7],27 µM
same,KD tracked on the F1 (Phe6) 19F resonance,[8],108 µM
same,KD tracked on the F2 (Phe7) 19F resonance,[8],33 µM
same,KD tracked on the F3 (Phe11) 19F resonance,[8],45 µM
same,Kd,[8],62 µM
"C[C@H](N)C(=O)NCC(=O)N[C@@H](CO)C(=O)N[C@@H](CCCCN)C(=O)N[C@@H](CC(N)=O)C(=O)N[C@@H](Cc1ccc(F)cc1)C(=O)N[C@@H](Cc1ccc(F)cc1)C(=O)N[C@@H](Cc1c[nH]c2ccccc12)C(=O)N[C@@H](CCCCN)C(=O)N[C@H](C(=O)N[C@@H](Cc1ccc(F)cc1)C(=O)N[C@H](C(=O)N[C@@H](CO)C(=O)N[C@@H](CO)C(=O)O)[C@@H](C)O)[C@@H](C)O [F1,2,3 Δ-som] (H-AGSKN[Phe(4-F)][Phe(4-F)]WKT[Phe(4-F)]TSS-OH)",Kd,[3],48 ± 35 µM
same,Kd,"[4]; 19F 1D NMR, F1 (Phe6) resonance of triple fluorinated peptide, 0.15 mM peptide, varying b’x, pH 7.0, ± standard error of fit, read-out: Dissociation constant (Kd), LIGAND 19F Tracked (Triple-F), F1 peak",108 ± 15 µM
same,Kd,"[4]; 19F 1D NMR, F2 (Phe7) resonance of triple fluorinated peptide, 0.15 mM peptide, varying b’x, pH 7.0, ± standard error of fit, read-out: Dissociation constant (Kd), LIGAND 19F Tracked (Triple-F), F2 peak",33 ± 11 µM
same,Kd,"[4]; 19F 1D NMR, F3 (Phe11) resonance of triple fluorinated peptide, 0.15 mM peptide, varying b’x, pH 7.0, ± standard error of fit, read-out: Dissociation constant (Kd), LIGAND 19F Tracked (Triple-F), F3 peak",45 ± 14 µM
same,Kd,"[4]; mean of the Kd from each monitored 19F resonance in the triple fluorinated peptide, 0.15 mM peptide, pH 7.0, read-out: Dissociation constant (Kd), LIGAND 19F Tracked (Triple-F), mean Kd",62 ± 13 µM
